# Experimental data reported in US10894091B2, “Linker units and molecular constructs comprising the same” (priority 2017, dated 2021).
# maleimide‑FITC = FITC conjugated through maleimide to the Cys of the Cys-containing CCK8 peptide
# T1: human CCK8-type B receptor molecules on Panc-1 tumor cell line (Homo sapiens, UniProt P32239)
# T1 construct: human CCK8-type B receptor molecules on Panc-1 tumor cell line; endogenous in cells; host or cells: Panc-1 pancreatic carcinoma cell line
# T1 sequence (P32239 1-447): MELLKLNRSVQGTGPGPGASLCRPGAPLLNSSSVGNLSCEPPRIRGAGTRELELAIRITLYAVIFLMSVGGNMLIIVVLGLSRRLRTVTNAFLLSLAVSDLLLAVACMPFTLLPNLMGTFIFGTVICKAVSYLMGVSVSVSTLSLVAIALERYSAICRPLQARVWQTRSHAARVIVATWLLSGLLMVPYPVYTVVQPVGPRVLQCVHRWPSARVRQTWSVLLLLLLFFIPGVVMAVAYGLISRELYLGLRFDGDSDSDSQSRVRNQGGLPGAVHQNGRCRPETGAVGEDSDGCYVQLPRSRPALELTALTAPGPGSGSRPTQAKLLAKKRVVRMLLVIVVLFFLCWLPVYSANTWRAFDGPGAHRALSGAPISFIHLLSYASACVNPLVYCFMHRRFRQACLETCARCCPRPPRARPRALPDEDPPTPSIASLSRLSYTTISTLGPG
# What was measured:
# [1] = target: T1, human CCK8-type B receptor molecules on Panc-1 tumor cell line; experiment: Staining analysis (FACS) of binding of CCK8 peptide to CCK-type B receptor-expressing tumor cell line; assay type: cell-based; conditions: 150 μg/ml CCK8-FITC reaction mixture, on ice 30 minutes, FIG. 24
# Description: The CCK8 peptide molecule was analyzed for its ability to bind to human CCK8-type B receptor molecules on Panc-1 tumor cell line. Panc-1 was established from a pancreatic carcinoma, which was extracted via pancreatico-duodenectomy specimen from an individual. Malignancy of this cell line was verified via in vitro and in vivo assays. Prior to staining, the Cys-containing CCK8 peptide was conjugated with maleimide-FITC to produce a FITC-labeled CCK8 peptide as a detective CCK8 molecule with FITC. The assay was then performed by incubating 2×10^6 Panc-1 cells with 150 μg/ml of the reaction mixture of CCK8-FITC molecule in PBS, with 1 FBS and 1% sodium azide on ice for 30 minutes in the dark. The staining of maleimide-FITC alone was used a negative control. The staining of cells was analyzed by FACS (FACSCanto II; BD Biosciences). The x-axis of histogram is the fluorescence intensity. In FIG. 24, the dark area represents the background of fluorescence distribution of Panc-1 cells, the dashed line is the fluorescence distribution of Panc-1 cells stained maleimide-FITC and the dark line is the fluorescence distribution of Panc-1 cells stained CCK8-FITC.
# [2] = target: T2, human CD3 on Jurkat T cell line (Homo sapiens, UniProt P07766); experiment: Staining analysis (FACS) of binding of anti-CD3 scFv to T cells; assay type: cell-based
# T2 construct: human T lymphocyte cell which express the T cell receptor (TcR)/CD3 complexes on the cell surface; endogenous in cells; host or cells: Jurkat T cell line
# T2 sequence (P07766 23-207): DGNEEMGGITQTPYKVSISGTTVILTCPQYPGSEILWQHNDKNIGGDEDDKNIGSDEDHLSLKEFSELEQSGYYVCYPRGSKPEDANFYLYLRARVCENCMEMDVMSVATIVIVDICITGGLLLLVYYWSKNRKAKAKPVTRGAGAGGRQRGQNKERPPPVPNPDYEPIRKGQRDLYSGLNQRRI
# T2 sequence (P09693 23-182 partner): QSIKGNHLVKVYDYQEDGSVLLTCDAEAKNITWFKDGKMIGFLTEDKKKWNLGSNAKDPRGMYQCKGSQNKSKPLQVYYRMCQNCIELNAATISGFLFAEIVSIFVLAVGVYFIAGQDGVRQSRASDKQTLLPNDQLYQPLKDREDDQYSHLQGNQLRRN
# T2 sequence (P04234 22-171 partner): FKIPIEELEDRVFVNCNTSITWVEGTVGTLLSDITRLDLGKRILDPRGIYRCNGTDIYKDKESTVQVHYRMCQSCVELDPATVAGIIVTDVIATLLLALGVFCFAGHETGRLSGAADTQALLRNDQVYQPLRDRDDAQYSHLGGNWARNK
# T2 sequence (P20963 22-164 partner): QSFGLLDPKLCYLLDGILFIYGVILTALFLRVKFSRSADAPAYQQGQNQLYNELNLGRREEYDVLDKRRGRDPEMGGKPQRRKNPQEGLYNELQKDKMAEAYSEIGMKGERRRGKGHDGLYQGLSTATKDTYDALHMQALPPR
# T2 sequence (P01848 whole entry partner): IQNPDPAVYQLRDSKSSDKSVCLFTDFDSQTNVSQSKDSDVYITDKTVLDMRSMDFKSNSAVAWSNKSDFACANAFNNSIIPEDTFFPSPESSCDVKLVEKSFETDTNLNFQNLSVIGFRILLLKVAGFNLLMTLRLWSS
# T2 sequence (P01850 whole entry partner): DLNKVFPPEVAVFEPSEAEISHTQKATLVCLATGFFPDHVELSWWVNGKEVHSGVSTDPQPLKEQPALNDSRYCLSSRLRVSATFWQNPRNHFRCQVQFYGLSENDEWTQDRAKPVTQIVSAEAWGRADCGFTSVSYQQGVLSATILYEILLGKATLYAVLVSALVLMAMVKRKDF
# Description: The ability of the mutated teplizumab to bind to human T lymphocytes, which express CD3 was studied with Jurkat T cell line. The mutated teplizumab was analyzed for their ability to bind to human CD3 molecules on Jurkat T cell line. Jurkat cells are immortalized line of human T lymphocyte cell which express the T cell receptor (TcR)/CD3 complexes on the cell surface.
# The assay was performed by incubating 2×10^6 Jurkat T cells with 0.1 and 1 μg/ml of the scFv in PBS with 1 FBS and 0.1% sodium azide on ice for 30 minutes. Cells were washed and incubated with FITC-conjugated Protein L (ACROBiosystems Inc., Newark, USA), diluted 1:200 in PBS/FBS, at 4° C. for 30 minutes in the dark. Protein L-FITC and FITC-conjugated rabbit anti-mouse IgG.Fc (AbD Serotec) were used as secondary antibodies. The staining of secondary antibodies alone were as negative controls. OKT3, a mouse monoclonal antibody specific for human CD3, was used as the positive control. The staining of cells was analyzed by FACS (FACSCanto II; BD Biosciences). The x-axis of histogram is the fluorescence intensity.
# The purity of DBCO-conjugated scFvs specific for CD3 was identified through Coomassie staining of 12% SDS-PAGE (data not shown).
# [3] = flow cytometric analysis, FIG. 23C
Molecule,binding to Panc-1 cells [1],"binding to T cells ([2]; Jurkat T cells, 0.1 and 1 μg/ml scFv, on ice 30 minutes, FITC-conjugated Protein L, FACS, FIG. 23B)","binding to T cells [2, 3]"
FITC-labeled CCK8 peptide (Ac-C(maleimide‑FITC)GGGGSDYMGWMDF-NH2; ends and bridges not checked),bound to Panc-1 cells,–,–
"mutated teplizumab: scFv of teplizumab with CDR3 VH cysteine substituted by serine, SEQ ID NO: 21 (protein) scFv: QVQLVQSGGGVVQPGRSLRLSCKASGYTFTRYTMHWVRQAPGKGLEWIGYINPSRGYTNYNQKVKDRFTISRDNSKNTAFLQMDSLRPEDTGVYFCARYYDDHYSLDYWGQGTPVTVSSGSTSGSGKPGSGEGSTKGDIQMTQSPSSLSASVGDRVTITCSASSSVSYMNWYQQTPGKAPKRWIYDTSKLASGVPSRFSGSGSGTDYTFTISSLQPEDIATYYCQQWSSNPFTFGQGTKLQITRGGGGSGGGGSC",–,bound to T cells,bound to T cells
DBCO-conjugated scFv specific for CD3: mutated teplizumab scFv conjugated at C-terminal cysteine with Mal-PEG5-DBCO (conjugate) scFv: QVQLVQSGGGVVQPGRSLRLSCKASGYTFTRYTMHWVRQAPGKGLEWIGYINPSRGYTNYNQKVKDRFTISRDNSKNTAFLQMDSLRPEDTGVYFCARYYDDHYSLDYWGQGTPVTVSSGSTSGSGKPGSGEGSTKGDIQMTQSPSSLSASVGDRVTITCSASSSVSYMNWYQQTPGKAPKRWIYDTSKLASGVPSRFSGSGSGTDYTFTISSLQPEDIATYYCQQWSSNPFTFGQGTKLQITRGGGGSGGGGSC,–,–,bound to T cells
